Where no end group is shown, it is not given here. [ ]: non-standard residue; d: D form. fluorescent label = not defined here; Dap = NC[C@H](N)C(=O)O; Cm = not defined here
T1: sortase A (SrtA) (S. aureus), Q2FV99
T1 chain: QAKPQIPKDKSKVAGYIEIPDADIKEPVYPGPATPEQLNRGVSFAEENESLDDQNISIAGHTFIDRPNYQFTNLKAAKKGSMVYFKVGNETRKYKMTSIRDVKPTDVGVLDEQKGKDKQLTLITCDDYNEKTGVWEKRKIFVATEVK


Experiments:
[1] = biological target: T1, sortase A (SrtA) (S. aureus), Q2FV99; test: fluorescence polarization (anisotropy), SrtA titrated into peptide solution
[2] = biological target: T1, sortase A (SrtA) (S. aureus), Q2FV99; test: mean fluorescence intensity of SrtA-coated beads against peptide concentration, curve fit
Streptavidin, P22629 = test: fluorescence intensity of streptavidin-coated beads at varied peptide concentrations, hyperbola fit
Sequence of Streptavidin, P22629 (P22629 37-163 limits assumed): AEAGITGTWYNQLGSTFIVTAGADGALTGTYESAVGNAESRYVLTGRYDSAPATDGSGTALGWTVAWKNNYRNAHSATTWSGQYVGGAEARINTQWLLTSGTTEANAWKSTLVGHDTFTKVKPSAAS

Row | Binder | Kd [1] [µM] | Kd [2] [µM] | Kd (Streptavidin, P22629) [µM]
1 | ACLNSSQPSCGGG[Dap](fluorescent label) (not fully specified (residues 2, 10); cysteine pairing not given here; reading uncertain; also: Cm code not defined, fluorescent label not named) [W2] | 12 | 14 | 
2 | A[Cm]TPRSANY[Cm]GGG[Dap](fluorescent label) (not fully specified; reading uncertain; also: fluorescent label not named) [SA1] |  |  | 6
3 | A[Cm]DGRPDRA[Cm]GGG[Dap](fluorescent label) (not fully specified; reading uncertain; also: fluorescent label not named) [SA2] |  |  | 9
4 | ACHPVSGQKCGGG[Dap](fluorescent label) (not fully specified (residues 2, 10); cysteine pairing not given here; reading uncertain; also: Cm code not defined, fluorescent label not named) [W1] |  | 14 | 

Source: patent US12116698
